Measurements taken from paper PMC11261718.

Target: West Nile virus NS5 protein, wild-type, with a C-terminal Flag tag (UniProt P06935)
Assay: co-immunoprecipitation (NS5-Flag IP, western blot for NS3-myc)
Details: parent: 100

“West Nile virus NS3 protein, wild-type, with a C-terminal myc tag (from UniProt P06935) R186A” gave a percent of parent (IP with RNase) of 69% and a percent of parent (IP without RNase) of 107%.
